{
  "source": "the Human Domainome abundance scans (Beltran et al. 2025)",
  "parents": {"B1": {"name": "V(D)J recombination-activating protein 2, residues 415 to 491; numbered along this chain, P55895 (parent)", "chain": "YWITCCPTCDVDINTWVPFYSTELNKPAMIYCSHGDGHWVHAQCMDLAERTLIHLSAGSNKYYCNEHVEIARALHTP"}},
  "note": "± gives the uncertainty stated by the source.",
  "data": [
    {"variants_of": "B1", "assay": "abundance fitness (aPCA) (normalised: wild type 0, dead -1); higher = more abundant; growth selection in yeast, the domain comes from the species named", "details": "Homo sapiens", "values": [
      {"variant": "YWITCCPTCDVDINTWVPFYSTELNKPAMIYCSHGDGHWVHAQCMDLAERTLPHLSAGSNKYYCNEHVEIARALHTP", "abundance fitness": "-0.163 ± 0.2"},
      {"variant": "YWITCCPTCDVDINTWVPFYSTELNKPAMIYCSHGDGHWVHAQCMDLAERTLYHLSAGSNKYYCNEHVEIARALHTP", "abundance fitness": "-0.133 ± 0.1"},
      {"variant": "YWITCCPTCDVDINTWVPFYSTELNKPAMIYCSHGDGHWVHAQCMDLAERTLEHLSAGSNKYYCNEHVEIARALHTP", "abundance fitness": "-0.194 ± 0.13"},
      {"variant": "YWITCCPTCDVDINTWVPFYSTELNKPAMIYCSHGDGHWVHAQCMDLAERTLNHLSAGSNKYYCNEHVEIARALHTP", "abundance fitness": "0.244 ± 0.49"},
      {"variant": "YWITCCPTCDVDINTWVPFYSTELNKPAMIYCSHGDGHWVHAQCMDLAERTLAHLSAGSNKYYCNEHVEIARALHTP", "abundance fitness": "0.154 ± 0.11"},
      {"variant": "YWITCCPTCDVDINTWVPFYSTELNKPAMIYCSHGDGHWVHAQCMDLAERTLSHLSAGSNKYYCNEHVEIARALHTP", "abundance fitness": "0.049 ± 0.086"},
      {"variant": "YWITCCPTCDVDINTWVPFYSTELNKPAMIYCSHGDGHWVHAQCMDLAERTLTHLSAGSNKYYCNEHVEIARALHTP", "abundance fitness": "0.004 ± 0.11"},
      {"variant": "YWITCCPTCDVDINTWVPFYSTELNKPAMIYCSHGDGHWVHAQCMDLAERTLLHLSAGSNKYYCNEHVEIARALHTP", "abundance fitness": "-0.02 ± 0.076"},
      {"variant": "YWITCCPTCDVDINTWVPFYSTELNKPAMIYCSHGDGHWVHAQCMDLAERTLVHLSAGSNKYYCNEHVEIARALHTP", "abundance fitness": "-0.048 ± 0.096"},
      {"variant": "YWITCCPTCDVDINTWVPFYSTELNKPAMIYCSHGDGHWVHAQCMDLAERTLWHLSAGSNKYYCNEHVEIARALHTP", "abundance fitness": "-0.124 ± 0.12"},
      {"variant": "YWITCCPTCDVDINTWVPFYSTELNKPAMIYCSHGDGHWVHAQCMDLAERTLMHLSAGSNKYYCNEHVEIARALHTP", "abundance fitness": "0.041 ± 0.1"},
      {"variant": "YWITCCPTCDVDINTWVPFYSTELNKPAMIYCSHGDGHWVHAQCMDLAERTLRHLSAGSNKYYCNEHVEIARALHTP", "abundance fitness": "-0.011 ± 0.071"},
      {"variant": "YWITCCPTCDVDINTWVPFYSTELNKPAMIYCSHGDGHWVHAQCMDLAERTLHHLSAGSNKYYCNEHVEIARALHTP", "abundance fitness": "-0.069 ± 0.18"},
      {"variant": "YWITCCPTCDVDINTWVPFYSTELNKPAMIYCSHGDGHWVHAQCMDLAERTLFHLSAGSNKYYCNEHVEIARALHTP", "abundance fitness": "-0.013 ± 0.19"},
      {"variant": "YWITCCPTCDVDINTWVPFYSTELNKPAMIYCSHGDGHWVHAQCMDLAERTLDHLSAGSNKYYCNEHVEIARALHTP", "abundance fitness": "-0.184 ± 0.25"},
      {"variant": "YWITCCPTCDVDINTWVPFYSTELNKPAMIYCSHGDGHWVHAQCMDLAERTLGHLSAGSNKYYCNEHVEIARALHTP", "abundance fitness": "0.007 ± 0.064"},
      {"variant": "YWITCCPTCDVDINTWVPFYSTELNKPAMIYCSHGDGHWVHAQCMDLAERTLCHLSAGSNKYYCNEHVEIARALHTP", "abundance fitness": "-0.056 ± 0.12"},
      {"variant": "YWITCCPTCDVDINTWVPFYSTELNKPAMIYCSHGDGHWVHAQCMDLAERTNIHLSAGSNKYYCNEHVEIARALHTP", "abundance fitness": "-0.304 ± 0.28"},
      {"variant": "YWITCCPTCDVDINTWVPFYSTELNKPAMIYCSHGDGHWVHAQCMDLAERTRIHLSAGSNKYYCNEHVEIARALHTP", "abundance fitness": "-0.358 ± 0.073"},
      {"variant": "YWITCCPTCDVDINTWVPFYSTELNKPAMIYCSHGDGHWVHAQCMDLAERTDIHLSAGSNKYYCNEHVEIARALHTP", "abundance fitness": "-0.31 ± 0.18"},
      {"variant": "YWITCCPTCDVDINTWVPFYSTELNKPAMIYCSHGDGHWVHAQCMDLAERTIIHLSAGSNKYYCNEHVEIARALHTP", "abundance fitness": "-0.186 ± 0.14"},
      {"variant": "YWITCCPTCDVDINTWVPFYSTELNKPAMIYCSHGDGHWVHAQCMDLAERTYIHLSAGSNKYYCNEHVEIARALHTP", "abundance fitness": "-0.318 ± 0.19"},
      {"variant": "YWITCCPTCDVDINTWVPFYSTELNKPAMIYCSHGDGHWVHAQCMDLAERTEIHLSAGSNKYYCNEHVEIARALHTP", "abundance fitness": "-0.258 ± 0.095"},
      {"variant": "YWITCCPTCDVDINTWVPFYSTELNKPAMIYCSHGDGHWVHAQCMDLAERTVIHLSAGSNKYYCNEHVEIARALHTP", "abundance fitness": "-0.033 ± 0.074"},
      {"variant": "YWITCCPTCDVDINTWVPFYSTELNKPAMIYCSHGDGHWVHAQCMDLAERTQIHLSAGSNKYYCNEHVEIARALHTP", "abundance fitness": "-0.006 ± 0.084"},
      {"variant": "YWITCCPTCDVDINTWVPFYSTELNKPAMIYCSHGDGHWVHAQCMDLAERTHIHLSAGSNKYYCNEHVEIARALHTP", "abundance fitness": "-0.597 ± 0.42"},
      {"variant": "YWITCCPTCDVDINTWVPFYSTELNKPAMIYCSHGDGHWVHAQCMDLAERTFIHLSAGSNKYYCNEHVEIARALHTP", "abundance fitness": "-0.211 ± 0.11"},
      {"variant": "YWITCCPTCDVDINTWVPFYSTELNKPAMIYCSHGDGHWVHAQCMDLAERTPIHLSAGSNKYYCNEHVEIARALHTP", "abundance fitness": "-0.423 ± 0.083"},
      {"variant": "YWITCCPTCDVDINTWVPFYSTELNKPAMIYCSHGDGHWVHAQCMDLAERTCIHLSAGSNKYYCNEHVEIARALHTP", "abundance fitness": "-0.145 ± 0.089"},
      {"variant": "YWITCCPTCDVDINTWVPFYSTELNKPAMIYCSHGDGHWVHAQCMDLAERTSIHLSAGSNKYYCNEHVEIARALHTP", "abundance fitness": "-0.262 ± 0.07"},
      {"variant": "YWITCCPTCDVDINTWVPFYSTELNKPAMIYCSHGDGHWVHAQCMDLAERTAIHLSAGSNKYYCNEHVEIARALHTP", "abundance fitness": "-0.144 ± 0.082"},
      {"variant": "YWITCCPTCDVDINTWVPFYSTELNKPAMIYCSHGDGHWVHAQCMDLAERTWIHLSAGSNKYYCNEHVEIARALHTP", "abundance fitness": "-0.006 ± 0.092"},
      {"variant": "YWITCCPTCDVDINTWVPFYSTELNKPAMIYCSHGDGHWVHAQCMDLAERTTIHLSAGSNKYYCNEHVEIARALHTP", "abundance fitness": "-0.161 ± 0.086"},
      {"variant": "YWITCCPTCDVDINTWVPFYSTELNKPAMIYCSHGDGHWVHAQCMDLAERTLIFLSAGSNKYYCNEHVEIARALHTP", "abundance fitness": "-0.602 ± 0.34"},
      {"variant": "YWITCCPTCDVDINTWVPFYSTELNKPAMIYCSHGDGHWVHAQCMDLAERTLIPLSAGSNKYYCNEHVEIARALHTP", "abundance fitness": "-0.007 ± 0.04"}
    ]}
  ]
}
